What was measured:
Assay in all cases: ITC; Microcal PEAQ-ITC, 20 °C; protein about 0.8–0.12 mM (so in the source), peptide about 1.0–1.5 mM; 100 mM NaCl, 20 mM HEPES, 2 mM β-mercaptoethanol (pH 7.0 in the methods, [7.4] in the footnote of Supplementary Table 1)
[1] = molecular target: RDM15 Tudor domain (residues 598-662), wild type (Arabidopsis thaliana)
[2] = molecular target: RDM15 Tudor domain (residues 598-662) Q654A (Arabidopsis thaliana)
[3] = molecular target: RDM15 Tudor domain (residues 598-662) D645A (Arabidopsis thaliana)

Row | Substance | Kd [1] [µM] | stoichiometry N [1] | Kd [2] [µM] | stoichiometry N [2] | Kd [3] [µM] | stoichiometry N [3]
1 | H3K4me2 peptide | 30.9 | 1.03 |  |  |  | 
2 | H3K4me3 peptide | 66.2 | 0.9 |  |  |  | 
3 | H3(1-15) K4me1 peptide |  | 0.96 | 60.8 | 1.08 | 62.7 | 0.86

Reference: article PMC8184781, “A histone H3K4me1-specific binding protein is required for siRNA accumulation and DNA methylation at a subset of loci targeted by RNA-directed DNA methylation” (Nature Communications, 2021)
